Assay results from US20180133295A1 (AMAL THERAPEUTICS, published 2018).

Assays:
human TLR4 = target: T1, human TLR4 (human, UniProt O00206 24-839); assay: HEK-hTLR4 cells, IL-8 ELISA; binding inferred from activation
T1 construct: whole, on cells; also called hTLR4; Toll-like receptor 4

human TLR2 = target: T2, human TLR2 (human, UniProt O60603 21-784); assay: HEK-Blue hTLR2 cells, NF-κB/AP1 reporter and IL-8 ELISA; binding inferred from activation
T2 construct: whole, on cells; Expressed on the HEK-Blue hTLR2 reporter cell line; also called hTLR2; Toll-like receptor 2
T2 sequence (O60603 21-784): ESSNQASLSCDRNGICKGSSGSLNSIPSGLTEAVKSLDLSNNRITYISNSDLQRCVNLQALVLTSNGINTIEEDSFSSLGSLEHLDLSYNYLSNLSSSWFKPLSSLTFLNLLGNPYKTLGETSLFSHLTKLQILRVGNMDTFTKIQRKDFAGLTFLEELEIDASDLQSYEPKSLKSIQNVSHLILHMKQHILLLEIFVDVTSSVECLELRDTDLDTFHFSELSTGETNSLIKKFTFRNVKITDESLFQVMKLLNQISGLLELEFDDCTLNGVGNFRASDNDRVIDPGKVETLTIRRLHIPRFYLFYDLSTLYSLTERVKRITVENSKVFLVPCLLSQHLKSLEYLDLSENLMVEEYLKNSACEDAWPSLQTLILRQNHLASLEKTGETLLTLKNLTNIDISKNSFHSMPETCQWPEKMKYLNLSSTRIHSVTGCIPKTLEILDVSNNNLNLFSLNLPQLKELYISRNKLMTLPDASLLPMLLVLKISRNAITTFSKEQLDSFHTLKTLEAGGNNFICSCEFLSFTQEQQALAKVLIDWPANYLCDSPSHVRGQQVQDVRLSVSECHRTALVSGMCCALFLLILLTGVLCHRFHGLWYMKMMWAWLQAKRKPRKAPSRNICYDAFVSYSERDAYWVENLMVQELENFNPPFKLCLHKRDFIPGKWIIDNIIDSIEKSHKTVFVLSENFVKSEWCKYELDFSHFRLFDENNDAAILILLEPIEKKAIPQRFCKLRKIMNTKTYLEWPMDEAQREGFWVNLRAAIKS

T1 sequence (O00206 24-839): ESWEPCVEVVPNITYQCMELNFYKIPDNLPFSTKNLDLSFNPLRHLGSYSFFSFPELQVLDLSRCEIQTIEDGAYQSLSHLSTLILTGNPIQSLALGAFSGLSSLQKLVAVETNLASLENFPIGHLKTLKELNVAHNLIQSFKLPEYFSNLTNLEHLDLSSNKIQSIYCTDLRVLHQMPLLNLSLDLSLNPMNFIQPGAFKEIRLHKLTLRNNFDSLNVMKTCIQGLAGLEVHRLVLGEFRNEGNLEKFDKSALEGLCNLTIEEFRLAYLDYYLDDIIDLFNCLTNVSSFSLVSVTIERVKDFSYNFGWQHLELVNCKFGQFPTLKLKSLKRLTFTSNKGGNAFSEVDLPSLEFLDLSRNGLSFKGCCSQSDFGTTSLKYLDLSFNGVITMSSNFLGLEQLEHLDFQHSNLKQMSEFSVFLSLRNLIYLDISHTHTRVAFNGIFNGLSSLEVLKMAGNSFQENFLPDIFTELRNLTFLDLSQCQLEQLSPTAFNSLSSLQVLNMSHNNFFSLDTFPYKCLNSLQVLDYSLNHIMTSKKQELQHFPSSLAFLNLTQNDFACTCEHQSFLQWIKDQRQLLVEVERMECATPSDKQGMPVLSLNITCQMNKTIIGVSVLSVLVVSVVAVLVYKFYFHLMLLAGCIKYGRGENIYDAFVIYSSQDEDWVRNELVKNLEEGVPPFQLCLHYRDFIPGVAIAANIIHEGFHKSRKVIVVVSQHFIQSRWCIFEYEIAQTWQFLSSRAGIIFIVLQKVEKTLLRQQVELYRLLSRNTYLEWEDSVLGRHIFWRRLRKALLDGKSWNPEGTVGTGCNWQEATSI

| Binder | binding result (human TLR4) | binding result (human TLR2) |
| --- | --- | --- |
| EDAZ13Mad5 (other, Recombinant fusion protein; 25057 Da; also called fusion protein of TLR4 peptide agonist EDA, cell-penetrating peptide Z13 and MAD5 cargo) MHHHHHHNIDRPKGLAFTDVDVDSIKIAWESPQGQVSRYRVTYSSPEDGIRELFPAPDGEDDTAELQGLRPGSEYTVSVVALHDDMESQPLIGIQSTKRYKNRVASRKSRAKFKQLLQHYREVAAAKSSENDRLRLLLKESLKISQAVHAAHAEINEAGREVVGVGALKVPRNQDWLGVPRFAKFASFEAQGALANIAVDKANLDVEQLESIINFEKLTEWTGS | binds |  |
| Z13Mad5Anaxa (other, Recombinant fusion protein; 18973 Da; also called fusion protein of cell-penetrating peptide Z13, MAD5 cargo and TLR peptide agonist Anaxa (C-terminal)) MHHHHHHKRYKNRVASRKSRAKFKQLLQHYREVAAAKSSENDRLRLLLKESLKISQAVHAAHAEINEAGREVVGVGALKVPRNQDWLGVPRFAKFASFEAQGALANIAVDKANLDVEQLESIINFEKLTEWTGSSTVHEILCKLSLEGDHSTPPSAYGSVKPYTNFDAE | binds | binds |
| AnaxaZ13Mad5 (other, Recombinant fusion protein; 18973 Da; also called AnaxZ13Mad5) MHHHHHHSTVHEILCKLSLEGDHSTPPSAYGSVKPYTNFDAEKRYKNRVASRKSRAKFKQLLQHYREVAAAKSSENDRLRLLLKESLKISQAVHAAHAEINEAGREVVGVGALKVPRNQDWLGVPRFAKFASFEAQGALANIAVDKANLDVEQLESIINFEKLTEWTGS |  | binds |
